From patent US20230030674A1 (SOTIO BIOTECH A S, published 2023)
Where a chain is given by its changes, count along the chain named.

B1: hGBA-1 (antibody, human IgG1, kappa, V domains shown)
VH: EVQLVQSGAEVKKPGESLKISCKGSGYSFTSYWIGWVRQMPGKGLEWMGNIYPGASDTRYAPSFQGQVTISADKSISTAYLQWSSLKASDTAMYYCARLWRGNSFDYWGQGTLVTVSS
VL: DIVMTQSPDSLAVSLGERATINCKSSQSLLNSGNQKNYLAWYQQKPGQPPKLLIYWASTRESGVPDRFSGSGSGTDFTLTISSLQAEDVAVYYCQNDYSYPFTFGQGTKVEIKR
notes: Humanized IgG1; X and chain(s) not specified, so tags not built in
B2: hGBA-9 (antibody, human IgG1, kappa, V domains shown)
VH: B1 VH with S28T, N50I, G54S, S56A, D57Y, A97T, L99M
VL: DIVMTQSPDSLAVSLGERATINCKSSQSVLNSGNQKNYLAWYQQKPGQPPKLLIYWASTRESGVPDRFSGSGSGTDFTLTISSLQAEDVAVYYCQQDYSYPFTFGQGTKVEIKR
notes: as for B1
B3: hGBA-6 (antibody, human IgG1, kappa, V domains shown)
VH: B1 VH with S28T, D57Y, A61S, A97T, L99Q
VL: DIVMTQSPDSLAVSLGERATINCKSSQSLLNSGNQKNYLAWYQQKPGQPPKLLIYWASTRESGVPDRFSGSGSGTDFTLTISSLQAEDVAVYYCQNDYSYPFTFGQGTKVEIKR
notes: as for B1
B4: hGBA-2 (antibody, human IgG1, kappa, V domains shown)
VH: B1 VH with A55D, S56A, L99M
VL: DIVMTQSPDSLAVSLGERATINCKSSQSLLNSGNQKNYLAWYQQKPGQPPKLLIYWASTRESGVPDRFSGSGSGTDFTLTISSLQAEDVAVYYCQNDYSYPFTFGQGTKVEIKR
notes: as for B1
B5: hGBA-7 (antibody, human IgG1, kappa, V domains shown)
VH: B1 VH with A55E, S56A, D57Y, A61S, A97T
VL: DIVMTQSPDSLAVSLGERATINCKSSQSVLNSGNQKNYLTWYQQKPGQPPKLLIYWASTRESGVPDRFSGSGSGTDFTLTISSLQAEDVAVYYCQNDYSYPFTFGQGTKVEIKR
notes: as for B1
B6: hGBA-4 (antibody, human IgG1, kappa, V domains shown)
VH: B1 VH with N50I, A55D, S56A, D57Y, A61S, A97T, Y107A
VL: DIVMTQSPDSLAVSLGERATINCKSSQSLLNSGNQKNYLTWYQQKPGQPPKLLIYWASTRESGVPDRFSGSGSGTDFTLTISSLQAEDVAVYYCQNDYSYPLTFGQGTKVEIKR
notes: as for B1
B7: hGBA-8 (antibody, human IgG1, kappa, V domains shown)
VH: B1 VH with G54S, A55E, D57Y, R59N, A97T
VL: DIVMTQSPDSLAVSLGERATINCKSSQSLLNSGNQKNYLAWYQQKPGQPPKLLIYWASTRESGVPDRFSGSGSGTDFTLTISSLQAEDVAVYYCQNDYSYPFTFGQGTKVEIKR
notes: as for B1
B8: hGBA-3 (antibody, human IgG1, kappa, V domains shown)
VH: B1 VH with N50I, R59N, L99I
VL: B6 VL with T40A
notes: as for B1
B9: hGBA-5 (antibody, human IgG1, kappa, V domains shown)
VH: B1 VH with N50I, S56A, D57Y
VL: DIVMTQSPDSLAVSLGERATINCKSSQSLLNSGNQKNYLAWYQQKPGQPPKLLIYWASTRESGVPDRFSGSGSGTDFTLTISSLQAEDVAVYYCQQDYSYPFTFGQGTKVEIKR
notes: as for B1
B10: IMAB362 (antibody, human IgG1, kappa, V domains shown)
VH: QVQLQQPGAELVRPGASVKLSCKASGYTFTSYWINWVKQRPGQGLEWIGNIYPSDSYTNYNQKFKDKATLTVDKSSSTAYMQLSSPTSEDSAVYYCTRSWRGNSFDYWGQGTTLTVSS
VL: DIVMTQSPSSLTVTAGEKVTMSCKSSQSLLNSGNQKNYLTWYQQKPGQPPKLLIYWASTRESGVPDRFTGSGSGTDFTLTISSVQAEDLAVYYCQNDYSYPFTFGSGTKLEIKR
notes: X and which chain(s) are not specified, so the tags are not built in; also called Claudiximab; Zolbetuximab

The binders below were run against T1, huCLDN18.2 (human, UniProt P56856-2 1-261) (assay: flow cytometry titration on HEK293T cells overexpressing CLDN18.2).
T1 construct: whole, on cells; Full-length huCLDN18.2 stably overexpressed in HEK293T cells (pPB-Puro-huCldn18.2); also called human CLDN18.2
Description: (§1) A PE-coupled secondary anti-human IgG antibody was added to the cells for additional 30 min at 4° C. after washes with the FACS buffer, followed by further washes with FC buffer. The cells were then resuspended in 100 μl FC buffer and measured with a FACSCalibur™ cell analyzer (BD Biosciences, USA).
For B1, the EC50 was 0.259 µg/mL and the “Max MFI” value was 3030 MFI.
In the case of B2, the EC50 is reported as 0.241 µg/mL and the “Max MFI” value is reported as 3120 MFI.
With B3 the EC50 was 0.257 µg/mL and the “Max MFI” value was 2890 MFI.
B4 was tested, and the EC50 was 0.249 µg/mL and the “Max MFI” value was 2970 MFI.
For B5, the EC50 was 0.42 µg/mL and the “Max MFI” value was 3250 MFI.
With B6 the EC50 was 0.357 µg/mL and the “Max MFI” value was 2790 MFI.
For B7, the EC50 was 0.187 µg/mL and the “Max MFI” value was 2700 MFI.
In the case of B8, the EC50 is reported as 0.273 µg/mL and the “Max MFI” value is reported as 2750 MFI.
With B9 the EC50 was 0.305 µg/mL and the “Max MFI” value was 3320 MFI.
In the case of B10, the EC50 is reported as 0.388 µg/mL and the “Max MFI” value is reported as 1970 MFI.

Each binder was assayed against T1, huCLDN18.2 (assay: flow cytometry titration on PA-TU-8988S-High cells (endogenous CLDN18.2)).
Description: as §1
For B1, the EC50 was 0.444 µg/mL and the “Max MFI” value was 2530 MFI.
With B2 the EC50 was 0.286 µg/mL and the “Max MFI” value was 2440 MFI.
With B3 the EC50 was 0.191 µg/mL and the “Max MFI” value was 2240 MFI.
In the case of B4, the EC50 is reported as 0.584 µg/mL and the “Max MFI” value is reported as 2400 MFI.
For B5, the EC50 was 0.323 µg/mL and the “Max MFI” value was 2320 MFI.
For B6, the EC50 was 0.412 µg/mL and the “Max MFI” value was 2010 MFI.
B7 was tested, and the EC50 was 0.303 µg/mL and the “Max MFI” value was 2370 MFI.
With B8 the EC50 was 0.352 µg/mL and the “Max MFI” value was 2160 MFI.
B9 was tested, and the EC50 was 0.159 µg/mL and the “Max MFI” value was 2560 MFI.
B10 was tested, and the EC50 was 0.508 µg/mL and the “Max MFI” value was 1050 MFI.
